Measurements from publication PMC6802120, “Concatenation of 14-3-3 with partner phosphoproteins as a tool to study their interaction” (Scientific Reports, 2019).
Several values for one entry are separate records, joined by “and”; a condition that tells them apart may be missing. Equal values may be shown once.

B1: pCH1 (phosphorylated peptidic chimera of 14-3-3σ(clu3)∆C with the HSPB6 phosphopeptide, residues 12-19) (other, human)
chain: GPHMERASLIQKAKLAEQAERYEDMAAFMKGAVEKGEELSCEERNLLSVAYKNVVGGQRAAWRVLSSIEQKSNEEGSAAAGPEVREYREKVETELQGVCDTVLGLLDSHLIKEAGDAESRVFYLKMKGDYYRYLAEVATGDDKKRIIDSARSAYQEAMDISKKEMPPTNPIRLGLALNFSVFHYEIANSPEEAISLAKTTFDEAMADLHTLSEDSYKDSTLIMQLLRDNLTLWTGSGSLRRASAPL
modifications: phosphoserine at Ser16 of the HSPB6 peptide (phosphorylated by PKA)
notes: three extra residues left at the N-terminus after 3C cleavage; human 14-3-3σ, C-terminally truncated, residues 1-231, with the 'clu3' replacements; linker; also called phosphorylated CH1; 14-3-3-phosphopeptide chimera; not shown: His6, N-terminal, cleaved
B2: HSPB6 ACD (α-crystallin domain, residues 72-149) (domain or fragment, human, UniProt O14558 72-149, looked up)
chain: GHFSVLLDVKHFSPEEIAVKVVGEHVEVHARHEERPDEHGFVAREFHRRYRLPPGVDPAAVTSALSPEGVLSIQAAPA
notes: human small heat shock protein HSPB6, α-crystallin domain, residues 72-149; also called ACD dimer; isolated ACD
B3: 14-3-3-pB6 chimera (PKA-phosphorylated chimera of human 14-3-3σ(clu3)∆C and HSPB6 residues 12-153) (other)
chain: GPHMERASLIQKAKLAEQAERYEDMAAFMKGAVEKGEELSCEERNLLSVAYKNVVGGQRAAWRVLSSIEQKSNEEGSAAAGPEVREYREKVETELQGVCDTVLGLLDSHLIKEAGDAESRVFYLKMKGDYYRYLAEVATGDDKKRIIDSARSAYQEAMDISKKEMPPTNPIRLGLALNFSVFHYEIANSPEEAISLAKTTFDEAMADLHTLSEDSYKDSTLIMQLLRDNLTLWTGSGSLRRASAPLPGLSAPGRLFDQRFGEGLLEAELAALCPTTLAPYYLRAPSVALPVAQVPTDPGHFSVLLDVKHFSPEEIAVKVVGEHVEVHARHEERPDEHGFVAREFHRRYRLPPGVDPAAVTSALSPEGVLSIQAAPASAQA
modifications: phosphoserine at Ser16 of the HSPB6 part (phosphorylated by PKA)
notes: three extra residues left at the N-terminus after 3C cleavage; human 14-3-3σ, C-terminally truncated (14-3-3σ∆C), residues 1-231, with the surface entropy reduction 'clu3' replacements; linker; the full chimera 'followed the same principles' as CH1; human small heat shock protein HSPB6, residues 12-153 (out of 160): Ser16 phosphopeptide region, rest of the NTD and the α-crystallin domain; Could …
B4: unphosphorylated 14-3-3-B6 chimera (human 14-3-3σ(clu3)∆C and HSPB6 residues 12-153) (other)
chain: B3 chain
notes: three extra residues left at the N-terminus after 3C cleavage; human 14-3-3σ, C-terminally truncated (14-3-3σ∆C), residues 1-231, with the 'clu3' replacements; linker; the full chimera 'followed the same principles' as CH1; human small heat shock protein HSPB6, residues 12-153 (out of 160); also called unphosphorylated chimera; unphosphorylated version; source: E. coli BL21(DE3) without PKA, …

Experiments:
[1] = biological target: 14-3-3σ∆C (C-terminally truncated human 14-3-3σ, residues 1-231) (human) (UniProt P31947); assay: SEC; fluorescence-assisted size-exclusion spectrochromatography, Superdex 200 Increase 5/150, SEC buffer; detection at 230 nm absorbance and Trp fluorescence (excitation 298 nm, emission 360 nm); proteins alone and mixed
[2] = biological target: the molecule itself; assay: as above
[3] = biological target: the molecule itself; assay: SEC; same column and buffer as a1; higher loaded protein concentrations (second peak appears); apparent MW from column calibration; dimer to tetramer
[4] = biological target: the molecule itself; assay: SEC; Superdex 200 Increase 5/150, 0.45 ml/min; 20 mM Tris-HCl pH 7.6, 150 mM NaCl, 0.5 mM EDTA, 1 mM DTT, 3% glycerol; low loaded protein concentration; apparent MW from column calibration

Molecule | stoichiometry N [1] | stoichiometry N [2] | stoichiometry N [3] | stoichiometry N [4]
14-3-3σ∆C (C-terminally truncated human 14-3-3σ, residues 1-231) (from UniProt P31947 1-231) (domain or fragment) | 2 |  |  | 
B1 |  | 4 and 2 |  | 
B2 |  | 2 |  | 
B3 |  |  | 4 | 2
B4 |  |  | 4 | 2
